# Reference: patent publication US20250289891A1 (AUTOLUS, published 2025)
# T1: Plate bound FcRH5 antigen (UniProt Q96RD9)
# T1 sequence (looked up): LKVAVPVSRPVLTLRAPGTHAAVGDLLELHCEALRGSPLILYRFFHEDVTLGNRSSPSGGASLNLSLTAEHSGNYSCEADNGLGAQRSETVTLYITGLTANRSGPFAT
# T2: Recombinant purified FcRH5 Ig-8 domain (UniProt Q96RD9 743-850, limits assumed)
# T2 construct: domain: Ig8
# T2 sequence (looked up): T1 sequence (looked up)
# B1: Anti-FcRH5 VHH-CAR 66835 (VHH of AU60466), on Jurkat T cells (protein, not shown: large carriers)
# chain: QVQLQQSGGGLVQAGGSLSLSCTASGRSFSNYGMGWFRQAPGKEREFVAAIGMVGGLTAYSNSAKGRFTISRDNAKNTLYLQMNSLKPEDTAVYLCAAGRRFSTSSRDYDIWGQGTQVTVS
# B2: Anti-FcRH5 VHH-CAR 66823 (VHH of AU60385), on Jurkat T cells (protein, not shown: large carriers)
# chain: QVQLQESGGGLVQAGGSLRLSCAASGRTFSTYAMAWFRQAPGKEREFVAAISGFGVVTYYADSVKGRFTISRDNAKNTLYLQMNGLKPEDTAVYYCAAGRRTSTNGGDYDYWGQGTQVTVS
# B3: Anti-FcRH5 VHH-CAR 66831 (VHH of AU60462), on Jurkat T cells (protein, not shown: large carriers)
# chain: QVQLQESGGGLVQAGGSLRLSCTASGRTSSRAAMGWFRQAPGKEREFVAVISWSGGTTAYANSVKGRFTISRDNAKNTLYLQMNSLKPEDTAVYYCAAARIFTTARNDYDHWGQGTQVTVS
# B4: Anti-FcRH5 VHH-CAR 66836 (VHH of AU60467), on Jurkat T cells (protein, not shown: large carriers)
# chain: QVQLQESGGGLVQAGDSLRLSCAASGRTFDSRPMGWFRQAPGKEREFVGAVSWRGESTYYPDSVKGRFTISRDNAKRTVYLQMNSLKPEDTAVYYCAAGEPYSGTYYYRGRDYDYWGQGTQVTVS
# B5: Anti-FcRH5 VHH-CAR 66829 (VHH of AU60460), on Jurkat T cells (protein, not shown: large carriers)
# chain: QVQLQESGGGLVQAGGSLRLSCAASGRTYNNYAMGWFRQAPGKEREFVAGISRSGGMTGYAESVKGRFTISRDNAKNMVFLQMNSLKPEDTAVYYCAAYVGGFSTARRDYSYWGQGTQVTVS
# B6: Anti-FcRH5 VHH-CAR 66825 (VHH of AU60387), on Jurkat T cells (protein, not shown: large carriers)
# chain: QVQLQESGGGLVQAGGSLRLSCAASGRTFSTYGMGWFRQAPGKEREFVAAISRSGGATAYAASVKGRFTISRDDVKNTLYLQMNSLKPEDTAVYHCAGTRRAFSTGLRDYDYWGQGIQVTVS
# B7: Anti-FcRH5 VHH-CAR 66828 (VHH of AU60390), on Jurkat T cells (protein, not shown: large carriers)
# chain: QVQLQQSGGGLVQAGDSLRLSCAASGRTFSNSTMGWFRQAPGKERKFVAVISWSGGTYAYAESVKGRFTISRDNAKNTVYLQMNSLKPEDTAVYYCAAARKGWSTRGDDYDYWGQGTQVTVS
# B8: Anti-FcRH5 VHH-CAR 66832 (VHH of AU60463), on Jurkat T cells (protein, not shown: large carriers)
# chain: QVQLQESGGGLVQAGDSLRLSCAYSGRTFSSYAMGWFRQAPGKERVFVAAISRIGGVTTYAESVQGRFTISRDNAKNTLYLQMNALKPEDTAVYYCAAAGLVSISTTPNDYDYWGQGTQVTVS
# B9: Anti-FcRH5 VHH-CAR 66833 (VHH of AU60464), on Jurkat T cells (protein, not shown: large carriers)
# chain: QVQLQQSGGGLVQPGGSLRLSCAAPGNIFRLNGTGWYRQAPGKQRELVAHITSGGNTDYADSVKGRFTISRDNAKNTVYLQMNSLKPEDTAVYYCNAIPFRLSWGQGTQVTVS
# B10: Anti-FcRH5 VHH-CAR 66840 (VHH of AU60471), on Jurkat T cells (protein, not shown: large carriers)
# chain: QVQLQESGGGLVQAGGSLRLSCAASGSIFSINAMGWYRQAPGKQRELVAFITSGGSTNYADSVKGRFTISRDNAKNTVYLQMNSLKPEDTAVYYCNALGGFVPSYGWGQGTQVTVS
# B11: Anti-FcRH5 VHH-CAR 66842 (VHH of AU60370), on Jurkat T cells (protein, not shown: large carriers)
# chain: QVQLQESGGGSVQPGGSLSLSCAASGFTFSNYAMSWVRQAPGKGPEWVAVINSDGGTASSAGSVRGRFTISRDNAKNTLYLQMNRLKPEDTAVYYCAANRGFCAGVRCLEYQYWGQGTQVTVS
# B12: Anti-FcRH5 VHH-CAR 66843 (VHH of AU60382), on Jurkat T cells (protein, not shown: large carriers)
# chain: QVQLQESGGGLVQAGGSLIVSCAASGRTFSINAMAWFRQAPGKEREFVAAIGGSGRVSSTSYADFVKGRFTISRDNAKNTVYLRMNNLEPEDTAVYYCAARRDYLPFPPESYDYWGQGTQVTVA
# B13: Anti-FcRH5 VHH-Fc AU60369 (AbVec.aFcRH5.dAb-MIgG2a-Fc.Clone.B03) (Fc fusion)
# chain: QVQLQESGGGLVQAGGSLRLSCAASRSSFSNNAMGWYRQVPGKQRELVAFITKGGVTDYSDSVKGRFTISKDNAKNTVYLQMNSLKPEDTAVYYCNTIPFRSAWGQGTQVTVS
# notes: VHH fused to murine IgG2a Fc, expi-CHO, Protein A purified; not shown: murine IgG2a Fc domain
# B14: Anti-FcRH5 VHH-Fc AU60385 (AbVec.aFcRH5.dAb-MIgG2a-Fc.Clone.B07 as printed in Table 3; Clone B11 in Table 9) (Fc fusion)
# chain: B2 chain
# notes: not shown: murine IgG2a Fc domain
# B15: Anti-FcRH5 VHH-Fc AU60387 (AbVec.aFcRH5.dAb-MIgG2a-Fc.Clone.C01) (Fc fusion)
# chain: B6 chain
# notes: VHH fused to murine IgG2a Fc; not shown: murine IgG2a Fc domain
# B16: Anti-FcRH5 VHH-Fc AU60460 (AbVec.aFcRH5.dAb-MIgG2a-Fc.Clone.C10) (Fc fusion)
# chain: B5 chain
# notes: as for B15
# B17: Anti-FcRH5 VHH-Fc AU60462 (AbVec.aFcRH5.dAb-MIgG2a-Fc.Clone.E04) (Fc fusion)
# chain: B3 chain
# notes: as for B15
# B18: Anti-FcRH5 VHH-Fc AU60463 (AbVec.aFcRH5.dAb-MIgG2a-Fc.Clone.E07) (Fc fusion)
# chain: B8 chain
# notes: as for B14
# B19: Anti-FcRH5 VHH-Fc AU60464 (AbVec.aFcRH5.dAb-MIgG2a-Fc.Clone.E11) (Fc fusion)
# chain: B9 chain
# notes: as for B14
# B20: Anti-FcRH5 VHH-Fc AU60465 (AbVec.aFcRH5.dAb-MIgG2a-Fc.Clone.E12) (Fc fusion)
# chain: QVQLQESGGGLVQAGGSLRLSCVVSRNIFSLNPMGWYRQAPGKQREMVAIITDGGSTNYADSVKGRFTISRDNVKNTVYLQMNALEPEDTAVYYCNRVGGLQTWAWGQGTQVTVSS
# notes: as for B14
# B21: Anti-FcRH5 VHH-Fc AU60466 (AbVec.aFcRH5.dAb-MIgG2a-Fc.Clone.F01) (Fc fusion)
# chain: B1 chain
# notes: as for B14
# B22: Anti-FcRH5 VHH-Fc AU60470 (AbVec.aFcRH5.dAb-MIgG2a-Fc.Clone.F11) (Fc fusion)
# chain: QVQLQESGGGLVQAEGSLRLSCAASGRTFSMYAMGWFRQAPGREREFVAAISGSARITYYGQSVKGRFTISRDNAKNTVYLQMNSLKPEDTAVYYCAASSTYTSTSGSSYNYWGQGTQVTVS
# notes: as for B14
# B23: Anti-FcRH5 VHH-Fc AU60370 (AbVec.aFcRH5.dAb-MIgG2a-Fc.Clone.B04) (Fc fusion)
# chain: B11 chain
# notes: as for B14
# B24: Anti-FcRH5 VHH-Fc AU60471 (AbVec.aFcRH5.dAb-MIgG2a-Fc.Clone.F12) (Fc fusion)
# chain: B10 chain
# notes: as for B15
# B25: Anti-FcRH5 VHH-Fc AU60382 (AbVec.aFcRH5.dAb-MIgG2a-Fc.Clone.B07) (Fc fusion)
# chain: B12 chain
# notes: as for B14
# Biological target: T1, Plate bound FcRH5 antigen
# Test: cell-based or functional assay
Binder,EC50 (µg/ml) of percentage Nur77 activation by plate bound FcRH5 antigen (µg/ml FcRH5 coating),Nur77-mClover positive cells after 24 h 10 µg/ml (% upregulation)
B1,0.977,45.5%
B2,1.54,26.5%
B3,,2.59%
B4,,0.898%
B5,1.43,44.5%
B6,2.42,39%
B7,1.8,34.2%
B8,2,38.4%
B9,1.31,26.6%
B10,1.62,40.7%
B11,1.46,36.8%
B12,1.97,29.7%

# Biological target: T2, Recombinant purified FcRH5 Ig-8 domain
# Test: SPR, Biacore 8k, VHH-mIgG2a Fc captured by anti-mouse kit on CM5, FcRH5 Ig8 as analyte (500 nM, 2-fold dilutions), 1:1 Langmuir fit, 25 C
# Method: (§1) Recombinant anti-FcRH5 antibodies in mouse IgG2a format were captured on flow cell 2 on a Series S CM5 chip (GE Healthcare), functionalised with anti-mouse capture kit according to manufacturer's recommendations (GE Healthcare). Antibodies were captured to a density of 160 RU using a Biacore 8k instrument. HBS-P+ buffer was used as running buffer in all experimental conditions. Recombinant purified FcRH5 Ig-8 domain at known concentrations (500 nM with 2-fold serial dilutions) used as the ‘analyte’ and injected over the respective flow cells with 150s contact time and 500s dissociation at 30 μl/minute of flow rate with a constant temperature of 25° C. In each experiment, flow cell 1 was unmodified and used for reference subtraction. A ‘0 concentration’ sensogram of buffer alone was used as a double reference subtraction to factor for drift. Data were fit to a 1:1 Langmuir binding model. Since a capture system was used, a local maximal analytical response (Rmax) parameter was used for the data fitting in each case.
Binder,Kd,koff,kon
B13,4.77 nM,0.00246 s⁻¹,516000 M⁻¹ s⁻¹
B14,6.56 nM,0.000348 s⁻¹,53100 M⁻¹ s⁻¹
B15,,,48600 M⁻¹ s⁻¹
B16,0.669 nM,3.4e-05 s⁻¹,50800 M⁻¹ s⁻¹
B17,5.8 nM,0.000293 s⁻¹,50500 M⁻¹ s⁻¹
B18,2.99 nM,0.000161 s⁻¹,53800 M⁻¹ s⁻¹
B19,4.84 nM,0.00289 s⁻¹,596000 M⁻¹ s⁻¹
B20,4.54 nM,0.00306 s⁻¹,673000 M⁻¹ s⁻¹
B21,3.14 nM,0.000469 s⁻¹,150000 M⁻¹ s⁻¹
B22,0.255 nM,1.81e-05 s⁻¹,70800 M⁻¹ s⁻¹
B23,3.64 nM,0.00028 s⁻¹,76800 M⁻¹ s⁻¹
B24,0.757 nM,0.00025 s⁻¹,330000 M⁻¹ s⁻¹
B25,4.34 nM,0.000515 s⁻¹,119000 M⁻¹ s⁻¹

# Biological target: T2, Recombinant purified FcRH5 Ig-8 domain
# Test: SPR, Biacore 8k, VHH-mIgG2a Fc captured, FcRH5 Ig8 as analyte, 1:1 Langmuir fit, 25 C; footnote: kd outside instrument limits
# Method: as §1
Binder,Kd,koff
B15,< 0.206 nM,< 1e-05 s⁻¹
